The text below walks through data of patent US10428140B2, “Anti-EphA4 antibody” (EISAI R&D MANAGEMENT CO., LTD., priority 2015, dated 2019).

Positions count from the first letter of the chain named.

First the molecules themselves.
B1: 88 (antibody, V domains shown)
VL: DIQMTQSPSSLSASVGDRVTITCRASENIYRNLAWYQQKPGKAPQLLLYAATNLADGVPSRFSGSGSGTDYTLTISSLQPEDFATYYCQHFWGTPWTFGQGTKVEIK
VH: QVQLVQSGSELKKPGASVKVSCKASGYTFTDYSMHWVRQAPGQGLKWMGWINTETGEPTYAQGFTGRFVFSLDTSVSTAYLQISSLKAEDTAVYYCARIPLYYYGSRYWYFDVWGQGTTVTVSS
modifications: constant regions without entry; synthetic humanized antibody light chain variable region sequence; synthetic humanized antibody heavy chain variable region sequence
B2: 91 (antibody, V domains shown)
VL: B1 VL
VH: B1 VH with Q62D, G63D, T65K
modifications: constant regions without entry; synthetic humanized antibody light chain variable region sequence; synthetic humanized antibody heavy chain variable region sequence
B3: 93 (antibody, V domains shown)
VL: EIVMTQSPATLSVSPGERATLSCRASENIYRNLAWYQQKPGQSPRLLIYAATNLADGIPARFSGSGSGTEYTLTISSLQSEDFAVYYCQHFWGTPWTFGQGTKVEIK
VH: B1 VH with K46E
modifications: constant regions without entry; synthetic humanized antibody light chain variable region sequence; synthetic humanized antibody heavy chain variable region sequence
B4: 89 (antibody, V domains shown)
VL: B1 VL
VH: B1 VH with V2I
modifications: constant regions without entry; synthetic humanized antibody light chain variable region sequence; synthetic humanized antibody heavy chain variable region sequence
B5: 96 (antibody, V domains shown)
VL: B3 VL
VH: B1 VH with Q62D, G63D, T65K
modifications: constant regions without entry; synthetic humanized antibody light chain variable region sequence; synthetic humanized antibody heavy chain variable region sequence
B6: 94 (antibody, V domains shown)
VL: B3 VL
VH: B1 VH
modifications: constant regions without entry; synthetic humanized antibody light chain variable region sequence; synthetic humanized antibody heavy chain variable region sequence
B7: 90 (antibody, V domains shown)
VL: B1 VL
VH: B1 VH with K46E, Q62D, G63D, T65K
modifications: constant regions without entry; synthetic humanized antibody light chain variable region sequence; synthetic humanized antibody heavy chain variable region sequence
B8: 95 (antibody, V domains shown)
VL: B3 VL
VH: B1 VH with K46E, Q62D, G63D, T65K
modifications: constant regions without entry; synthetic humanized antibody light chain variable region sequence; synthetic humanized antibody heavy chain variable region sequence
B9: 92 (antibody, V domains shown)
VL: B1 VL
VH: B1 VH with V2I, Q62D, G63D, T65K
modifications: constant regions without entry; synthetic humanized antibody light chain variable region sequence; synthetic humanized antibody heavy chain variable region sequence
B10: 71 (antibody, V domains shown)
VH: B1 VH with V2I
VL: B3 VL
modifications: synthetic humanized antibody heavy chain variable region sequence; synthetic humanized antibody light chain variable region sequence

For the first assay, the target named is T1, human EphB1 (Homo sapiens, UniProt P54762).
T1 construct: a protein of the extracellular region of each human Eph receptor fused with the SEAP protein and the His tag; made in house; host or cells: Expi293F cells (culture supernatant)
T1 sequence (P54762 18-540 limits assumed): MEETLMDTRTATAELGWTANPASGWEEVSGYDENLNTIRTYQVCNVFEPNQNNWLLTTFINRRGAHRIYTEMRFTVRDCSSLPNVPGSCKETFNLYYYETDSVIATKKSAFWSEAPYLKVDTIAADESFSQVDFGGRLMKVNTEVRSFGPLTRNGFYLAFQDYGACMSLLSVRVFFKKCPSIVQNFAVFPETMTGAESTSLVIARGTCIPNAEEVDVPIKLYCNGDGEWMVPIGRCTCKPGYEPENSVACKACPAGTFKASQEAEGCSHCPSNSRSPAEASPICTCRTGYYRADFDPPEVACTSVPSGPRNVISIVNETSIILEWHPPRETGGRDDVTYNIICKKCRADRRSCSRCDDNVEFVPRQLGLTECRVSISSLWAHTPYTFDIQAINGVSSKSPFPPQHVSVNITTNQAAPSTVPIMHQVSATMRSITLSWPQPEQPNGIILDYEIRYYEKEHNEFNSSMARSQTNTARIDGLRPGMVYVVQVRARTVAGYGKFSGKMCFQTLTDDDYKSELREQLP
The experiment in a line: Selectivity ELISA of humanized antibodies for human Eph receptor. In kind it is binding. To be noted: coated protein 1 nM. The method, boiled down:
(§1)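 Extracellular domains of human Eph receptors fused to SEAP-His were expressed in Expi293F cells for 5 days and captured from supernatant (1 nM final) on anti-His-coated plates. Humanized anti-EphA4 antibodies were incubated 1 h at room temperature, then HRP anti-IgG secondary, TMB substrate, and absorbance at 450 nm.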
(An ELISA detects its analyte on a solid surface through an enzyme-linked reagent.)
On to B1, for which the “hEphB1-SEAP-: absorbance at 450 nm, percentage with respect to hEphA4-SEAP-His as 100%” value was determined as 6.1%.
B2: the “hEphB1-SEAP-: absorbance at 450 nm, percentage with respect to hEphA4-SEAP-His as 100%” value is 6.6%.
For B3, the “hEphB1-SEAP-: absorbance at 450 nm, percentage with respect to hEphA4-SEAP-His as 100%” value stood at 5.0%.
On to B4, for which the “hEphB1-SEAP-: absorbance at 450 nm, percentage with respect to hEphA4-SEAP-His as 100%” value is given as 5.7%.
Same read-out and setting: with B5 the figure was 5.6%; with B6, 6.7%; with B7, 4.9%.
As to B8, the “hEphB1-SEAP-: absorbance at 450 nm, percentage with respect to hEphA4-SEAP-His as 100%” value turned out to be 4.6%.
Turning to B9, the “hEphB1-SEAP-: absorbance at 450 nm, percentage with respect to hEphA4-SEAP-His as 100%” value is reported as 6.9%.
Regarding B10, the “hEphB1-SEAP-: absorbance at 450 nm, percentage with respect to hEphA4-SEAP-His as 100%” value was 5.4%.

A further assay has as its target T2, human EphB4 (Homo sapiens, UniProt P54760).
T2 construct: a protein of the extracellular region of each human Eph receptor fused with the SEAP protein and the His tag; made in house; host or cells: Expi293F cells
T2 sequence (P54760 16-539 limits assumed): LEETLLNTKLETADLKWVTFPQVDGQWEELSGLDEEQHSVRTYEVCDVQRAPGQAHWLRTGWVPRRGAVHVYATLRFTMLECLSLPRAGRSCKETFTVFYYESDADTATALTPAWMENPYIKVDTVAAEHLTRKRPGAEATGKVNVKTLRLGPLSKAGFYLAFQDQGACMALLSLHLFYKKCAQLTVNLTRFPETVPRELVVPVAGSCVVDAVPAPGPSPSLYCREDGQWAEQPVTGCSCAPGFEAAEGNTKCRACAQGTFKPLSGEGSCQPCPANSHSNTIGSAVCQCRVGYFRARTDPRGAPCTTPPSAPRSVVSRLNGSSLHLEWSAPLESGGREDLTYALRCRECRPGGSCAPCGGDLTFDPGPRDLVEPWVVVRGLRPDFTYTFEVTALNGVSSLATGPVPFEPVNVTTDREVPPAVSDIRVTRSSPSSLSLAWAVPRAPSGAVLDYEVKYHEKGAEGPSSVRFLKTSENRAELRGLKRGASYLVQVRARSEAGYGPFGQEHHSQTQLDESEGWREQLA
Described as above. In kind it is binding. The note with it: coated protein 1 nM. The method, boiled down:
as §1
Take B1: the “hEphB4-SEAP-: absorbance at 450 nm, percentage with respect to hEphA4-SEAP-His as 100%” value came out at 6.1%.
Take B2: the “hEphB4-SEAP-: absorbance at 450 nm, percentage with respect to hEphA4-SEAP-His as 100%” value is 6.2%.
For B3, the “hEphB4-SEAP-: absorbance at 450 nm, percentage with respect to hEphA4-SEAP-His as 100%” value turned out to be 5.0%.
For the molecule B4, the “hEphB4-SEAP-: absorbance at 450 nm, percentage with respect to hEphA4-SEAP-His as 100%” value is 5.8%.
Still for that read-out and setting: as for B5, the figure is 5.5%; as for B6, 6.5%; as for B7, 5.0%.
On the same count and under the same terms, as for B8, the figure is 4.6%.
Same read-out and setting: as for B9, the figure is 6.6%.
In the case of B10, the “hEphB4-SEAP-: absorbance at 450 nm, percentage with respect to hEphA4-SEAP-His as 100%” value came out at 5.5%.

Another assay deals with T3, human EphB6 (Homo sapiens, UniProt O15197).
T3 construct: a protein of the extracellular region of each human Eph receptor fused with the SEAP protein and the His tag; made in house; host or cells: Expi293F cells
T3 sequence (O15197 32-594 limits assumed): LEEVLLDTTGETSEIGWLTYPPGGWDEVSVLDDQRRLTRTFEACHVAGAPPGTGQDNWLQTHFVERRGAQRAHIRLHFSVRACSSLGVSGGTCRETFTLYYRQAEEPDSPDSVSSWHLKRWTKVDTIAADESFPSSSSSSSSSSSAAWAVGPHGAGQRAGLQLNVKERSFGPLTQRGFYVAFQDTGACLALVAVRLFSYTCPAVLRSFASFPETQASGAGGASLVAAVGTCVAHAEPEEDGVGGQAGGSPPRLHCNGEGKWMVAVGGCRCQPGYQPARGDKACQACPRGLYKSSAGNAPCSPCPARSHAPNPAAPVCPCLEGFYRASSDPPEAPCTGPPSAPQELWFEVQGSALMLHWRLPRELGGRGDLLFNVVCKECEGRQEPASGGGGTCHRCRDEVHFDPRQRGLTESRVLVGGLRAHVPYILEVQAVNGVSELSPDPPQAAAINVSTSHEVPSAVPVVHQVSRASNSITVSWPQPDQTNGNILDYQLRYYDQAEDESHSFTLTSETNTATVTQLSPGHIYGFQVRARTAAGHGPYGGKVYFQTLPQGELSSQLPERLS
Described as above. In kind it is binding. To be noted: coated protein 1 nM. The gist of the method: as §1
On to B1, for which the “hEphB6-SEAP-: absorbance at 450 nm, percentage with respect to hEphA4-SEAP-His as 100%” value was 6.1%.
Turning to B2, the “hEphB6-SEAP-: absorbance at 450 nm, percentage with respect to hEphA4-SEAP-His as 100%” value is 6.3%.
With B3, the “hEphB6-SEAP-: absorbance at 450 nm, percentage with respect to hEphA4-SEAP-His as 100%” value was found to be 4.9%.
Still for that read-out and setting: with B4 the figure was 4.8%.
Consider B5, for which the “hEphB6-SEAP-: absorbance at 450 nm, percentage with respect to hEphA4-SEAP-His as 100%” value was 5.5%.
Turning to B6, the “hEphB6-SEAP-: absorbance at 450 nm, percentage with respect to hEphA4-SEAP-His as 100%” value amounted to 6.4%.
Same read-out and setting: with B7 the figure was 5.2%.
Turning to B8, the “hEphB6-SEAP-: absorbance at 450 nm, percentage with respect to hEphA4-SEAP-His as 100%” value was determined as 4.7%.
Consider B9, for which the “hEphB6-SEAP-: absorbance at 450 nm, percentage with respect to hEphA4-SEAP-His as 100%” value is 6.5%.
With B10, the “hEphB6-SEAP-: absorbance at 450 nm, percentage with respect to hEphA4-SEAP-His as 100%” value came to 5.3%.
